From patent US20140044674A1

Molecular target: IL-10R on freshly isolated human blood monocytes (human) (UniProt Q13651)
Assay: cell-based or functional assay

Chain of IL-10R on freshly isolated human blood monocytes (human) (Q13651 22-578, chain 1 of 2): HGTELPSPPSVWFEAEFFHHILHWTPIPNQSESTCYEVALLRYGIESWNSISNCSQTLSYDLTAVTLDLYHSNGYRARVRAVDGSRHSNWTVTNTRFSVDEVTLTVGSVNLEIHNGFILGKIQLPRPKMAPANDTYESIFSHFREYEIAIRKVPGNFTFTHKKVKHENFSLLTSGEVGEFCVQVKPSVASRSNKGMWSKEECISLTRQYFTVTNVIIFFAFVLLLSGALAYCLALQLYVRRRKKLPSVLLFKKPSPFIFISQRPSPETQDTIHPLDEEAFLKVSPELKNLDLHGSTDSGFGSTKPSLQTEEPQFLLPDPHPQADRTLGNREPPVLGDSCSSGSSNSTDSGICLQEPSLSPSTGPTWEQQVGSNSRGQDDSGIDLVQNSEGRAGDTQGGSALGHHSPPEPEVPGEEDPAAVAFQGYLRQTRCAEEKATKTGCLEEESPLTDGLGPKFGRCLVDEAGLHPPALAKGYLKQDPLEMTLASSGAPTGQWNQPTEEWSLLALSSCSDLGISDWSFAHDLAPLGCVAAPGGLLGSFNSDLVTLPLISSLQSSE
Chain of IL-10R on freshly isolated human blood monocytes (human) (Q08334 20-325, chain 2 of 2, further chain): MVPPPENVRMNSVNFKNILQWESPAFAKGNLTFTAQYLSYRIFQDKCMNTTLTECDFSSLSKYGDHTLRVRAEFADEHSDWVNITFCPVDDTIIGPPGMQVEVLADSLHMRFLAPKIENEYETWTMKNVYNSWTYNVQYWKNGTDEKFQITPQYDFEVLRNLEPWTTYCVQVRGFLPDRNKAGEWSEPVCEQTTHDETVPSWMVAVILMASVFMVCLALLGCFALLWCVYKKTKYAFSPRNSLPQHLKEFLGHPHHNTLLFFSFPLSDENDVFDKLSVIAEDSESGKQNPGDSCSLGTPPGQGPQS

EC50 [nM] pSTAT3 induction, primary monocytes: 0.017 nM | EC50 [nM] pSTAT3 induction, primary monocytes, Donor 1: 0.029 nM | EC50 [nM] pSTAT3 induction, primary monocytes, Donor 2: 0.019 nM | EC50 [nM] pSTAT3 induction, primary monocytes, Donor 3: 0.021 nM
Substance: recombinant wild type human IL-10 (from UniProt P22301 19-178) (ligand)
